Here are results for 17 sequences from the DeepSol protein solubility set.

This series can be described thus: soluble on expression in E. coli; label from the status in PepcDB or PDB records.
In the case of “MGSDKIHHHHHHMMKMERKNVWHHRKKEEIEAFSKEYMEFMSKAKTERMTVKEIKRILDESGFVPLEDFAGDPMNMTVYAVNRGKAIAAFRVVDDLKRGLNLVVAHIDSPRLDFKPNPLIEDEQIALFKTHYYGGIKKYHWLSIPLEIHGVLFKNDGTEIEIHIGDKPEDPVFTIPDLLPHLDKEDAKISEKFKGENLMLIAGTIPLSGEEKEAVKTNVLKILNEMYGITEEDFVSGEIEVVPAFSPREVGMDRSLIGAYGQDDRICAYTALRALLSANPEKSIGVIFFDKEEIGSDGNTGAKARFYLKALRQILKMQGAKDSEFVLDEVLENTSVISGDVCAAVNPPYKDVHDLHNAPKLGYGVALVKYTGARGKYSTNDAHAEFVARVRKVLNEQGVIWQVATLGKVDQGGGGTIAKFFAERGSDVIDMGPALLGMHSPFEISSKADLFETYVAYRSLMEKL”, the “soluble on expression in E. coli” value is “not soluble”.

In the case of “MGSDKIHHHHHHMMNKREQDYWIFSVELRESKVSEENGKSIVITPLGLSAKRILIAGTVSSKQSDDRMARISLADPIGSFYVTAFSGGFNPEEKAMVDSLEVDDKAMVMGKINPYRTSEGVYLFSIRPELVSKTGEDALRLWTLKAYYFAKRRIYAIREAQKLQDPKADELISLGYSRVEAEAAISSIKNFPGYDYQRILEAIETAIYSVSTPTQLPEVRSKILNYIKENDTDGKGCKYEDIVIAAKNMGIDQSTTDEILNTLGSSGEIFEISLKRYKAVEPE”, the “soluble on expression in E. coli” value is listed as “not soluble”.

Take “MGSDKIHHHHHHMMNTSTSDPIGAAWLIRYASIELVSPLYITSSIGGRRQTYKEGNVIHNAYQETARPLDTIIAHLQFHMRHEVLNLELLVRLFEQIGADDVQAWVNAEPTGSYARRMAFLYEWLMDKELAVSSNLGGNYVDALDTKKMVTSSPEHIIKNARWRINDNLAGTRHFCPMLVKTEAFTQAAALDIATMVEKLNDEFGQDLLMRASVWMTLRESKASFTIEGEGKELKRIERFAEVMARRTGKGDIPLDPESLAELQQEILGSKTVIQQYGIRQSPVFVSHTQVNGFKEIVHYIAPPSEDIAYKLTGLQALMKKTEGQSALMRSAVASFAFVYIHPLADGNGRVHRFLINDVLRRDQVIHEPIILPISQAIAEHPSDRHAYDKILDRVSVPLMRQIRDHYRFDKQAVTYPDGIRSNLNFADSHLIQPAWRFMDLTPHVQYLSGLIAHVIEKEMHNESQYLRQHDHARLAIKEIVEMPNSYADRIIRSMLQNKGAKSNKLLQDYPFLANEAVWDDVFSVVVEIFK”: the “soluble on expression in E. coli” value was “not soluble”.

Consider “MGSDKIHHHHHHMMQKPKVGQDVPEPSAGGMFQRDAMSPSVAHKPVLELKGNLLSLMVLYLFDSDRNLIEQQFTEKISGAKNFFKNAPIVIDLHALQNTSVPVDLSHLSDLFRKHGLVPVGVRGGNVQQQQAALNLSLGILPDAKPASSRGEPQTEVAVQATRDKVFTQPVRSGQQVAALQGDLVVLAAVNPGAEILAGKNIHVYGPLRGRAIAGVHGYSEARIFCRYFDAELVAVAGQYMLNEDFEDSVRGKPVHIFLENDRLKIQPFEI”, for which the “soluble on expression in E. coli” value is listed as “not soluble”.

In the case of “MGSDKIHHHHHHMMQTDQRILLVGTPSERLSRLCCIFEFLGEQIDIITIEKLSTCLQETRFRALVISIDNMSADALKLVASQYPWQPILLFGHVGELQVSNVLGHIEEPLNYPQLTELLHFCQVYGQVKRPQVPTSANQTKLFRSLVGRSDGIANVRHLISQVATSDATVLVLGQSGTGKEVVARNIHYLSERRDGPFIPVNCGAIPPELLESELFGHEKGSFTGAISSRKGRFELAEGGTLFLDEIGDMPLQMQVKLLRVLQERVFERVGGTKTINADVRVVAATHRDLETMISSNEFREDLYYRLNVFPIEMPALSERKDDVPLLLQELVSRVYNEGRGKVRFTQRAIESLKEHAWSGNVRELSNLVERLTILYPGGLVDVNDLPIKYRHIDVPEYSVELSEEQQERDALASIFTSEEPVEIPETRFPSELPPEGVNLKDLLAELEIDMIRQALEQQDNVVARAAEMLGIRRTTLVEKMRKYGMTKE”, the “soluble on expression in E. coli” value is recorded as “not soluble”.

As to “MGSDKIHHHHHHMMTTVKDSTPAARELYLDLLVRILLNTIYQDPAINPGVRPMVVEPFNPKTRAIGKDWPTQAHTMVGQARLENLRQLSQQVLDDGIVGDFIETGVWRGGCCILMRGVLAANQIHDRKVYVADSFAGLPAPNVELYPRDTGWDLHEFKELAVSLQTVKDNFSRYGLLDEQVVFVEGMFSDTLPSLSAGPFALLRLDGDLYESTIVALNSLYPKLSRGGVVIIDDRALDPCRRAVIDFRDKHGITAPMQEVDWTGSWWRKE”, the “soluble on expression in E. coli” value was “not soluble”.

Consider “MGSDKIHHHHHHMNADEFVEAFNNAKDLTELELLAELGKSISDDLEGHEKGKVLGTLGNIYYALHRLKEAEEAYLEALNVYLKLSEEDEGFLPYVVGCLYNLGNLYQVSRKFAEAEKAYTDALKVLGDVRNDQRLAILTALGTMYAKLDMKEHAERCLVEAFEMAKVKGDARLLGTLLNNLAVVYQRGGRKREAAMLLKMALDALERVGEDLGIAAVLQNLLPYLDEDELRRVMERLESFGELPIDLKAKIAYFKARRAEEKGEDSAKHYMEAACLGFMAYRNFGFQSINFMHCLDKVIESDSELREDAVVLKKVILKYYYGSQKVEIDFDSRVGRMIKAVLEGDDIYEDGILEDTVRLIAEDLLKAGTKV”, for which the “soluble on expression in E. coli” value was “not soluble”.

Take “MGSDKIHHHHHHMNALPKLNQLRNLRAIIQHGNISAAAQMLHQTQSTLTRSIQELEKTLGVTLLDRGMNSTVLTKAGMMFEPRMNLILNELERAVDELRQIEKLSDGKIAFGCSHFPATSIVPDVIKKFQERHNSTRITIIEGQLSELLSSLRMGKLDFFIGVVSSDLMLNEFVEERLTSCSFSVVARKGHPLANSTSLAELQAAKWYIPAASHGYYSDLETVIFPNGVKSCGSVIFGDSSAIARKLVLNEDYLFVGPRPMFLAPHHKDLISIIPIKDKLPEGHYSLISPRNKKLTPAALNLVNEIRFAYFDFIKSHS”: the “soluble on expression in E. coli” value is reported as “not soluble”.

As for “MGSDKIHHHHHHMNDLNVLVLEDEPFQRLVAVTALKKVVPGSILEAADGKEAVAILESCGHVDIAICDLQMSGMDGLAFLRHASLSGKVHSVILSSEVDPILRQATISMIECLGLNFLGDLGKPFSLERITALLTRYNARRQDLPRQIEVAELPSVADVVRGLDNGEFEAYYQPKVALDGGGLIGAEVLARWNHPHLGVLPPSHFLYVMETYNLVDKLFWQLFSQGLATRRKLAQLGQPINLAFNVHPSQLGSRALAENISALLTEFHLPPSSVMFEITETGLISAPASSLENLVRLRIMGCGLAMDDFGAGYSSLDRLCEFPFSQIKLDRTFVQKMKTQPRSCAVISSVVALAQALGISLVVEGVESDEQRVRLIELGCSIAQGYLFARPMPEQHFLDYCSGS”, the “soluble on expression in E. coli” value is reported as “not soluble”.

As to “MGSDKIHHHHHHMNDLPLADLDAFATIARLRNFRAAGKLRGVSASSLSEAMRRLEARVGVRLLNRTTRSVTLTDAGARLLERLSPTLADIELALDDINQFRERPFGRLRLNVPGIVARCVLPPVVTGFLAAYPDILLEVTVNDALIDVLAEGCDAGIRYEEALHQDMIAVPIGPRRQRYVCVAAPSYLEQYGRPEHPRDLIHHRSILHRFNSGRVNEWHFEREGEAINVSPPPRLIAETVDLELAAVRAGLGMMGTFEDFVIEDLNAGRLERVLTDWEDEFSGPFLYYHSRRHMPVPLRVFVDYIRQHGDPG”, the “soluble on expression in E. coli” value is given as “not soluble”.

As for “MGSDKIHHHHHHMNDTPPPPSCARCSAVWQKSGTTNCWSNPDNRPGRPADCPSSAHGDIVASSFDEYRGESDDARLARVAARVEGLCYRKMTGSDAVVARWTRVEDTIALAKLMGWSKVGIATCIGLLDETRQLATILEAQGLEPVSVCCKAGSIDKLELGLDESDKVRPGTFEPACNPVAQAEVLNRCGTHMNIIVGLCVGHDMLFTKHSAAPVTTLVCKDRVTGHNPVAVLYGQNFYFKRLQKMPIDIPEGEE”, the “soluble on expression in E. coli” value is listed as “not soluble”.

For “MGSDKIHHHHHHMNEAQQLQQMQPLLYKQLQKSFEHGRLAHAYLFEGDTGTGKQEFGLWMAKHVFCTNLVNQQPCNECHNCVRINENEHPDVLRIAPDGQTIKVNQIRELKAEFSKSGVETAKKVFLIQEADKMSTGAANSLLKFLEEPEGQILAILETTSLSRILPTIQSRCQTLHFQPLVKKTLIDRLIKQGIGEKTATLLAELTNSFEKAVEISQDEWFNEAREIILQWFNYLKSNDLQAFIYVQKKMVKVFKEKEQQALSFDLLMVYYRQLLEESVATQQAKKVTEEQAERLALILKARQKWTANVSWQNVCEQLVIQMIHPKS”, the “soluble on expression in E. coli” value is “not soluble”.

Consider “MGSDKIHHHHHHMNEIKRIDTVQQYNDYFGMETLHPLVTVIDAREANPVHFCPKLYNLYAILMKDPDCGTLKYGRSIYDYQQGTMLFLAPGQVMGSDDDGQLHQPGGWLLAFHPELVRNTPLAQFIKNYSFFSYSANEALHLSEQERRTIIDCMCKIREELLHPIDKHTKSLITDNIKLLLDYCERFYDRQFETRENVNLDILARFEQTLDDYLASNLPISKGTPTVQYCADKLCLSANYLSDLLKKETGVSALKHIQQKMLDIAKERVFDVTKSISEISYELGFPYPQHFSRWFKKMVGVTPNEYRQNRNN”, for which the “soluble on expression in E. coli” value is recorded as “not soluble”.

On to “MGSDKIHHHHHHMNELTKQLQEIMVPKAALIAYEYQEGHYASGSHYLELRPINKKGRMEAGIPVTYEFMDSLVESYSDGNRRIPHGWLPPNMLWCDTRRGHESYVWYNPPGKRRMFFKNDLNIGDGMFHVPGVIYIIKNERMDIFAYKGKKPDGRTPLYLAPFFNVTGGNVCLGNSTLEKPESLDFHTLLEYWEKRFWLSEFSHLGGGKNPTRNNLVLVTERMREQPFDNDELQPINKRLKDILP”, for which the “soluble on expression in E. coli” value is “not soluble”.

Regarding “MGSDKIHHHHHHMNETSSYTIEEVAGLLKVSKLTVYDLIKKGVLPAYRVGRQMRVDEEDLKQYKTNMRMSQPIAAKEAPKQVQEAEPDGRPNVMISGQDISMDILSKHLENAIQETPLRKYKGSLNSLIDMYQGKCDIVSLHLYDAETGQYNAPYVKRILTGEPFCLINVVLRKAGLYVQKGNPKNIQGWKDLKRADIRIINREKGSGARVLLDEQLGLLGVNPADVVGYGDIVTDHYAAASQVSSGQADAGIGAQHAAHMGSVDFIPLIDEQYDIVVLKKNEQLLKAVKEILNSEDYKANLSHLNGYETKLTGKVILET”, the “soluble on expression in E. coli” value is reported as “not soluble”.

On to “MGSDKIHHHHHHMNFQIVINNIQHIGYAELDVDLNASGIICIVGKNGVGKTTLIKAILNLKSADTFSRTASPGIFKANSSMRCTYGENSYEFSFDSDINDLNSRSPIPEELKSVIDVELPMPFGQRFNNYQNIMSADMDIRTALILGEYEVPVELISFLSDIYKTNKFNGLVEVSAKGGSYYCIPLDDDRYVREDHLSSGEFFLISLYRKIKGRSKFIVIDEIDISLDAAAQAHLIGWLRRFCTTEQVKVVFTTHSLALMRTLKDGELFYMEESEGKVSVIPSSYNYIKSVLFGFKGWDRYILTEDAMLKSLLEYVLANYCSGLFFSYQIIHVGGGSNVVDLMRQNSTEGFFSTPENVISVLDGDQAEYRYARRPNVYCIPFLSVEKAIFAEYKAGRFLPELAPDPRFDTPKNFCSAIGRDRHATEADIIKYLCDSYPTEVRRFAQTLSDFLS”, for which the “soluble on expression in E. coli” value was “not soluble”.

With “MGSDKIHHHHHHMNGSATRTVAGVSVPDTTIVARTLDYARLEYEPYLFNHVVRSWLFAVRIAQLRNIDHDAEVVAVGTLLHDVTLNERFDGPRRFEVEGADLARVFAREGGVDERRAQLIWDSVALNSTPSIGLYKEAEVALCTAGIGLDVIGFQYERIPSEEIARIVQEYPRLNMKRRMTKCFCHIAEKRPETTYDNFVRDFGERHILGYRAPSSVDLVANAPFDE”, the “soluble on expression in E. coli” value was “not soluble”.
